B1: Gamma-crystallin C, residues 91 to 170; numbered along this chain, P07315 (parent)
chain: RLYEREDHKGLMMELSEDCPSIQDRFHLSEIRSLHVLEGCWVLYELPNYRGRQYLLRPQEYRRCQDWGAMDAKAGSLRRV

± gives the uncertainty stated by the source.

Variants of B1 are the subject of the data set. Kind of data set: abundance fitness (aPCA) (normalised: wild type 0, dead -1); higher = more abundant; growth selection in yeast, the domain comes from the species named. As to conditions: Homo sapiens.
As to R63L, the abundance fitness is -0.654 ± 0.052. The result for R63E reads -0.234 ± 0.091; that for R63S, -0.091 ± 0.057. To R63A belongs -0.056 ± 0.043; to R63T, 0.016 ± 0.076; to R63P, -1.02 ± 0.18.

For A69T, the abundance fitness was -0.361 ± 0.2. The result for A69G reads -0.196 ± 0.089; that for A69V, -0.818 ± 0.22. Regarding A69Q, the abundance fitness is -0.38 ± 0.054. To A69M belongs -0.847 ± 0.15.

As to A69S, the abundance fitness was -0.074 ± 0.074.

Turning to A69R, the abundance fitness is -0.964 ± 0.29.

For the variant A69P, the abundance fitness is -0.968 ± 0.29. Take A69C: the abundance fitness is -0.621 ± 0.46.

Turning to A69L, the abundance fitness is -0.935 ± 0.26.

In the case of A69D, the abundance fitness was -0.701 ± 0.42.

A69W: the abundance fitness was -0.668 ± 0.4.

In the case of A72V, the abundance fitness was -0.554 ± 0.15. As for A72W, the abundance fitness was -0.365 ± 0.12. A72I: the abundance fitness is -0.745 ± 0.23. The result for A72T reads -0.207 ± 0.071; that for A72H, -0.375 ± 0.15; that for A72S, -0.058 ± 0.064. The result for A72G reads -0.118 ± 0.047. To A72P belongs -0.007 ± 0.063; to A72R, -0.782 ± 0.093; to A72N, -0.066 ± 0.17. With A72M, the abundance fitness is -0.997 ± 0.35. A72F: the abundance fitness was -0.5 ± 0.12. To A72Y belongs -0.452 ± 0.26; to G75V, -0.815 ± 0.17; to G75N, -0.767 ± 0.46.

As to G75Q, the abundance fitness was -0.746 ± 0.21.

Regarding G75E, the abundance fitness is -0.984 ± 0.49. In the case of G75S, the abundance fitness is -0.479 ± 0.12. The result for G75R reads -0.933 ± 0.14; that for G75D, -0.705 ± 0.21. To G75H belongs -0.736 ± 0.47. As to G75L, the abundance fitness is -0.826 ± 0.27. On to G75T, for which the abundance fitness was -0.949 ± 0.43. For the variant G75P, the abundance fitness was -0.84 ± 0.18. To G75W belongs -0.989 ± 0.26; to G75A, -0.607 ± 0.095; to G75C, -0.516 ± 0.25. The result for V80I reads -0.341 ± 0.21; that for V80F, -0.1 ± 0.17. On to K73N, for which the abundance fitness is -0.026 ± 0.15. The result for K73Q reads -0.264 ± 0.16; that for K73V, -0.18 ± 0.08; that for K73S, -0.145 ± 0.076. The result for K73E reads -0.495 ± 0.14; that for K73M, -0.231 ± 0.11. The result for K73P reads -0.628 ± 0.15. For K73H, the abundance fitness was -0.042 ± 0.18. The result for K73A reads -0.069 ± 0.065; that for K73T, -0.124 ± 0.087. To K73C belongs -0.175 ± 0.17; to K73L, -0.185 ± 0.072; to K73G, -0.304 ± 0.071.

For K73W, the abundance fitness was -0.321 ± 0.12. The result for K73F reads -0.368 ± 0.14; that for K73R, 0.017 ± 0.05; that for K73Y, -0.295 ± 0.21.

On to R79S, for which the abundance fitness is -0.202 ± 0.29. In the case of E60W, the abundance fitness is -0.206 ± 0.084.

E60V: the abundance fitness was -0.117 ± 0.09.

Regarding E60T, the abundance fitness is -0.081 ± 0.07. The result for E60S reads -0.018 ± 0.067; that for E60Y, -0.069 ± 0.14. To E60R belongs 0.006 ± 0.071; to A74D, -0.749 ± 0.35; to A74Y, -0.781 ± 0.45. To A74I belongs 0.124 ± 0.24; to A74L, -0.454 ± 0.086; to A74V, 0.036 ± 0.067. As for A74T, the abundance fitness was -0.128 ± 0.045. The result for A74S reads -0.314 ± 0.062; that for A74G, -0.454 ± 0.1; that for A74C, -0.177 ± 0.21. To A74E belongs -0.56 ± 0.13; to A74P, -0.779 ± 0.13. To A74Q belongs -0.797 ± 0.21. In the case of A74M, the abundance fitness is -0.836 ± 0.37. On to D71N, for which the abundance fitness is -0.173 ± 0.18. The result for D71T reads 0.024 ± 0.12.

Turning to D71E, the abundance fitness is -0.185 ± 0.11.

Turning to D71R, the abundance fitness was -0.224 ± 0.066.

Take D71L: the abundance fitness was -0.5 ± 0.078. The result for D71C reads -0.029 ± 0.11; that for D71W, -0.281 ± 0.085. The result for D71K reads -0.126 ± 0.078. For the variant D71F, the abundance fitness is -0.148 ± 0.099. The result for D71A reads -0.483 ± 0.19.

D71H: the abundance fitness is -0.173 ± 0.11.

Turning to D71G, the abundance fitness was -0.165 ± 0.067.

On to D71S, for which the abundance fitness is -0.015 ± 0.057. As for D71I, the abundance fitness was -0.297 ± 0.18.

Turning to D71M, the abundance fitness is -0.443 ± 0.23. Regarding D71Y, the abundance fitness is -0.134 ± 0.12. The result for D71P reads -0.933 ± 0.35; that for L77C, -0.325 ± 0.16. L77F: the abundance fitness was -0.304 ± 0.15. As for L77M, the abundance fitness is -0.035 ± 0.1. The result for L77I reads 0.011 ± 0.36; that for L77D, -0.94 ± 0.5. The result for L77A reads -0.524 ± 0.056; that for L77T, -0.626 ± 0.23; that for L77E, -0.966 ± 0.49. L77R: the abundance fitness is -1.06 ± 0.31.

In the case of L77V, the abundance fitness is -0.169 ± 0.096. The result for C64H reads 0.063 ± 0.1; that for C64V, -0.596 ± 0.091.

Consider C64M, for which the abundance fitness is -0.404 ± 0.12. To C64Q belongs -0.795 ± 0.23; to C64Y, -0.116 ± 0.15. To C64W belongs -0.086 ± 0.17; to C64T, -0.213 ± 0.25; to C64R, -0.653 ± 0.073.

In the case of C64S, the abundance fitness is -0.285 ± 0.071.

As to C64L, the abundance fitness was -0.841 ± 0.099.

Take C64G: the abundance fitness is -0.597 ± 0.099. The result for C64P reads 0.014 ± 0.085; that for C64F, -0.093 ± 0.14; that for C64A, -0.144 ± 0.061. To M70F belongs -0.226 ± 0.13; to M70G, -0.167 ± 0.062; to M70V, -0.017 ± 0.083. The result for M70K reads -0.053 ± 0.15; that for M70H, 0.049 ± 0.11; that for M70E, 0.034 ± 0.1. Consider M70P, for which the abundance fitness turned out to be 0.064 ± 0.06. The result for M70D reads 0.094 ± 0.14. On to M70L, for which the abundance fitness was -0.063 ± 0.06. The result for M70Y reads -0.105 ± 0.14; that for M70W, -0.257 ± 0.075. For the variant M70R, the abundance fitness is -0.016 ± 0.039. The result for M70S reads -0.052 ± 0.052. To M70T belongs -0.06 ± 0.079; to M70C, -0.217 ± 0.25; to M70I, 0.097 ± 0.23. The result for W67K reads -0.827 ± 0.36; that for W67R, -0.744 ± 0.1. On to W67T, for which the abundance fitness is -0.612 ± 0.27. For W67L, the abundance fitness was -0.951 ± 0.14. The result for W67P reads -0.935 ± 0.17; that for W67E, -1.07 ± 0.49; that for W67G, -1 ± 0.19. With W67S, the abundance fitness is -0.778 ± 0.11. The result for W67C reads -0.703 ± 0.25; that for W67A, -0.944 ± 0.22; that for W67Q, -0.681 ± 0.19.

As for W67H, the abundance fitness was -0.89 ± 0.42. The result for R62W reads -0.073 ± 0.11.

R62D: the abundance fitness was -0.619 ± 0.21.

Consider R62F, for which the abundance fitness was -0.086 ± 0.14. To R62Y belongs -0.252 ± 0.43.

Consider R62Q, for which the abundance fitness is -0.1 ± 0.11. To R62V belongs -0.365 ± 0.093. To R62M belongs 0.195 ± 0.23; to R62S, -0.069 ± 0.066; to R62A, 0.07 ± 0.079. To R62G belongs -0.237 ± 0.074; to R62T, -0.262 ± 0.075; to R62N, -0.64 ± 0.41. For the variant R62E, the abundance fitness is -0.6 ± 0.15.

In the case of R62P, the abundance fitness was -0.196 ± 0.055.
